Patent publication US20070020327A1

B1: Kallikrein (hK2) peptide … (position 225) (peptide)
peptide: GITSWGPEPCA
modifications: not checked
B2: Kallikrein (hK2) peptide … (position 16) (peptide)
peptide: GAVPLIQSRIV
modifications: not checked
B3: … (Kallikrein position 52 / PSA position 48, 9-mer) (peptide)
peptide: GVLVHPQWV
modifications: not checked
B4: … (PSM position 252, 10-mer) (peptide)
peptide: GVQRGNILNL
modifications: not checked
B5: … (PAP position 144, 10-mer) (peptide)
peptide: HTVPLSEDQL
modifications: not checked
B6: … (PSA position 173, 9-mer) (peptide)
peptide: HVISNDVCA
modifications: not checked
B7: … (PSM position 283, 10-mer) (peptide)
peptide: IAEAVGLPSI
modifications: not checked
B8: … (PSM position 642, 9-mer) (peptide)
peptide: IASKFSERL
modifications: not checked
B9: … (PAP position 188, 10-mer) (peptide)
peptide: IATLGKLSGL
modifications: not checked
B10: … (PSM position 130, 9-mer) (peptide)
peptide: IINEDGNEI
modifications: not checked
B11: … (PSM position 373, 10-mer) (peptide)
peptide: ILGGHRDSWV
modifications: not checked
B12: ILLGRHSL (PSA position 69, 8-mer) (peptide)
peptide: ILLGRHSL
modifications: not checked
B13: … (PAP position 267, 9-mer) (peptide)
peptide: ILNHMKRAT
modifications: not checked
B14: … (PAP, position 10) (peptide)
peptide: RAASLSLGFL
modifications: not checked
B15: … (PSM, position 673) (peptide)
peptide: RAFIDPLGL
modifications: not checked
B16: … (PSA, position 43) (peptide)
peptide: RAVCGGVLV
modifications: not checked
B17: … (PAP, position 180) (peptide)
peptide: RLHPYKDFI
modifications: not checked
B18: … (PSA, position 121) (peptide)
peptide: RLSEPAELT
modifications: not checked
B19: … (PAP, position 287) (peptide)
peptide: SAHDTTVSGL
modifications: not checked
B20: … (PSM, position 634) (peptide)
peptide: SAVKNFTEI
modifications: not checked
B21: … (PSM, position 455) (peptide)
peptide: SIEGNYTLRV
modifications: not checked
B22: SIEPEEFL (Kallikrein, position 159) (peptide)
peptide: SIEPEEFL
modifications: not checked
B23: SIEPEEFL (PSA, position 155) (peptide)
peptide: SIEPEEFL
modifications: not checked
B24: … (PSA, position 155) (peptide)
peptide: SIEPEEFLT
modifications: not checked
B25: DLVLSIAL (Kallikrein, position 3, 8 amino acids) (peptide)
peptide: DLVLSIAL
modifications: not checked
B26: … (PSM, position 191, 10 amino acids) (peptide)
peptide: DMKINCSGKI
modifications: not checked
B27: … (PSA, position 98, 10 amino acids) (peptide)
peptide: DMSLLKNRFL
modifications: not checked
B28: … (PAP, position 230, 9 amino acids) (peptide)
peptide: DTMTKLREL
modifications: not checked
B29: … (PSA, position 178, 11 amino acids) (peptide)
peptide: DVCAQVHPQKV
modifications: not checked
B30: … (PSM, position 285, 10 amino acids) (peptide)
peptide: EAVGLPSIPV
modifications: not checked
B31: … (PSM, position 641, 10 amino acids) (peptide)
peptide: EIASKFSERL
modifications: not checked
B32: … (PSM, position 397, 9 amino acids) (peptide)
peptide: EIVRSFGTL
modifications: not checked
B33: … (PSA, position 136, 9 amino acids) (peptide)
peptide: DLPTQEPAL
modifications: not checked
B34: … (Kallikrein, position 3, 10 amino acids) (peptide)
peptide: DLVLSIALSV
modifications: not checked
B35: … (PAP, position 243) (peptide)
peptide: LLSLYGIHK
modifications: not checked
B36: LTELYFEK (PAP, position 315) (peptide)
peptide: LTELYFEK
modifications: not checked
B37: LVFRKGDR (PAP, position 40) (peptide)
peptide: LVFRHGDR
modifications: not checked
B38: … (PSA, position 58) (peptide)
peptide: TAAHCIRNK
modifications: not checked
B39: … (PSA, position 188) (peptide)
peptide: VTKFMLCAGR
modifications: not checked
B40: … (PSM, position 273) (peptide)
peptide: PANEYAYRR
modifications: not checked
B41: … (PSM, position 361) (peptide)
peptide: TLRGAVEPDR
modifications: not checked
B42: … (PAP, position 39) (peptide)
peptide: TLVFRHGDR
modifications: not checked
B43: … (PSA, position 56) (peptide)
peptide: VLTAAHCIR
modifications: not checked
B44: … (PAP, position 226) (peptide)
peptide: WATEDTMTK
modifications: not checked
B45: PSA peptide … (position 7, 10 amino acids) (peptide)
peptide: SVTWIGAAPL
modifications: not checked
B46: PSA peptide … (position 7, 11 amino acids) (peptide)
peptide: SVTWIGAAPLI
modifications: not checked
B47: PAP peptide … (position 222, 10 amino acids) (peptide)
peptide: TLPSWATEDT
modifications: not checked
B48: PSM peptide … (position 461, 10 amino acids) (peptide)
peptide: TLRVDCTPLM
modifications: not checked
B49: PSA peptide … (position 5, 9 amino acids) (peptide)
peptide: TLSVTWIGA
modifications: not checked
B50: PAP peptide … (position 291, 10 amino acids) (peptide)
peptide: TTVSGLQMAL
modifications: not checked
B51: ALPERPSL (PSA, position 231) (peptide)
peptide: ALPERPSL
modifications: not checked
B52: … (PSA, position 231) (peptide)
peptide: ALPERPSLYT
modifications: not checked
B53: … (PSA, position 181) (peptide)
peptide: AQVHPQKVT
modifications: not checked
B54: … (PSM, position 13) (peptide)
peptide: ATARRPRWL
modifications: not checked
B55: … (PAP, position 227) (peptide)
peptide: ATEDTMTKL
modifications: not checked
B56: … (PAP, position 189) (peptide)
peptide: ATLGKLSGL
modifications: not checked
B57: … (PSM, position 741) (peptide)
peptide: AAAETLSEV
modifications: not checked
B58: … (PSA, position 59) (peptide)
peptide: AAHCIRNKSV
modifications: not checked
B59: … (PAP, position 121) (peptide)
peptide: AALFPPEGV
modifications: not checked
B60: … (PSA, position 13) (peptide)
peptide: AAPLILSRI
modifications: not checked
B61: … (PSA, position 13) (peptide)
peptide: AAPLILSRIV
modifications: not checked
B62: … (PAP, position 11) (peptide)
peptide: AASLSLGFL
modifications: not checked

What follows are binders tested against HLA-A*0201 (human) (assay: competition with 125I-labelled standard peptide 941.01 for purified HLA, gel filtration). Details: remark: other sources report otherwise; scale: ratio.

Work on B1 yielded a binding affinity ratio of 0.0009.

Same assay, conditions: scale: ratio

Work on B2 yielded a binding affinity ratio of 0.0001.

Each binder was assayed against HLA-A*0206 (human) in the same assay as above. Details: remark: other sources report otherwise; scale: ratio.

Binder B1 has a binding affinity ratio of 0.0001.

Same assay, conditions: scale: ratio

B2 was tested, and the binding affinity ratio was 0.0003.

The binders below were run against HLA-A*0201 (human) (assay: competition for purified HLA with 125I-labelled standard peptide 941.01 [..] as competitor, gel filtration). Details: scale: ratio.

Going from B3 to B4, the binding affinity ratio falls from 0.0003 to 0.0001.

Compared with B5, B6 is lower in binding affinity ratio: 0.0002 for the first, 0.0001 for the second.

B7 and B8 are the same in binding affinity ratio: 0.0001 for the first, 0.0001 for the second.

B9 and B10 are the same in binding affinity ratio: 0.0002 for the first, 0.0002 for the second.

Compared with B11, B12 is higher in binding affinity ratio: 0.0003 for the first, 0.001 for the second.

B13 showed a binding affinity ratio of 0.0001.

Each binder was assayed against HLA-A*0201 (human) (assay: competition with 125I-labelled standard peptide 941.01 for purified HLA-A*0201, gel filtration). Details: not given.

Compared with B14, B15 is lower in binding affinity ratio (IC50 of standard peptide / IC50 of test peptide): 0.0002 for the first, 0.0001 for the second.

First: B16
Second: B17
The binding affinity ratio (IC50 of standard peptide / IC50 of test peptide) of the first is lower: 0.0002 for the first, 0.0006 for the second.

Going from B18 to B19, the binding affinity ratio (IC50 of standard peptide / IC50 of test peptide) falls from 0.0003 to 0.0002.

B20 and B21 are the same in binding affinity ratio (IC50 of standard peptide / IC50 of test peptide): 0.0001 for the first, 0.0001 for the second.

B22 and B23 are the same in binding affinity ratio (IC50 of standard peptide / IC50 of test peptide): 0.0001 for the first, 0.0001 for the second.

In the case of B24, the binding affinity ratio (IC50 of standard peptide / IC50 of test peptide) is reported as 0.0001.

Each binder was assayed against HLA-A*0201 (human) (assay: competition binding to purified HLA, 125I-labelled standard peptide, gel filtration; ratio = IC50 standard / IC50 test peptide). Details: not given.

B25 and B26 are the same in binding affinity ratio: 0.0001 for the first, 0.0001 for the second.

Compared with B27, B28 is higher in binding affinity ratio: 0.0001 for the first, 0.0002 for the second.

Compared with B29, B30 is higher in binding affinity ratio: 0.0001 for the first, 0.0002 for the second.

First: B31
Second: B32
The binding affinity ratio of the first is lower: 0.0001 for the first, 0.0002 for the second.

Same assay, conditions: remark: other sources report otherwise

First: B33
Second: B34
The binding affinity ratio of the first is lower: 0.0003 for the first, 0.001 for the second.

Each binder was assayed against HLA-A*1101 (human) (assay: competition with 125I-labelled standard peptide for purified HLA, gel filtration). Details: not given.

Going from B35 to B36, the binding affinity ratio (IC50 of standard peptide / IC50 of test peptide) falls from 0.2 to 0.01.

In the case of B37, the binding affinity ratio (IC50 of standard peptide / IC50 of test peptide) is reported as 0.0002.

Same assay, conditions: remark: other sources report otherwise; scale: ratio

Compared with B38, B39 is lower in binding affinity ratio: 0.014 for the first, 0.012 for the second.

Same assay, conditions: scale: ratio

B40 and B41 are the same in binding affinity ratio: 0.0002 for the first, 0.0002 for the second.

First: B42
Second: B43
The binding affinity ratio of the first is lower: 0.0002 for the first, 0.0005 for the second.

With B44 the binding affinity ratio was 0.0002.

These binders were tested against HLA-A*0301 (human) in the same assay as above. Details: not given.

Work on B37 yielded a binding affinity ratio (IC50 of standard peptide / IC50 of test peptide) of 0.0003.

Same assay, conditions: remark: other sources report otherwise; scale: ratio

First: B38
Second: B39
The binding affinity ratio of the first is higher: 0.0094 for the first, 0.0003 for the second.

Same assay, conditions: scale: ratio

Going from B40 to B41, the binding affinity ratio rises from 0.0001 to 0.0003.

Going from B42 to B43, the binding affinity ratio falls from 0.0006 to 0.0002.

For B44, the binding affinity ratio was 0.0006.

Each binder was assayed against HLA-A*0201 (human) (assay: competition with 125I-labelled standard peptide 941.01 ([..]) for purified HLA-A*0201, gel filtration). Details: not given.

B45 and B46 are the same in binding affinity ratio (IC50 of standard peptide / IC50 of test peptide): 0.0001 for the first, 0.0001 for the second.

Compared with B47, B48 is higher in binding affinity ratio (IC50 of standard peptide / IC50 of test peptide): 0.0002 for the first, 0.0008 for the second.

Compared with B49, B50 is higher in binding affinity ratio (IC50 of standard peptide / IC50 of test peptide): 0.0016 for the first, 0.002 for the second.

What follows are binders tested against HLA-A*0201 (human) (assay: inhibition of 125I probe peptide binding to purified HLA, gel filtration; ratio = IC50 standard/IC50 test). Details: not given.

Going from B51 to B52, the binding affinity ratio rises from 0.0002 to 0.0008.

B53 and B54 are the same in binding affinity ratio: 0.0002 for the first, 0.0002 for the second.

First: B55
Second: B56
The binding affinity ratio of the first is lower: 0.0002 for the first, 0.0005 for the second.

B57 and B58 are the same in binding affinity ratio: 0.0002 for the first, 0.0002 for the second.

B59 and B60 are the same in binding affinity ratio: 0.0002 for the first, 0.0002 for the second.

B61 and B62 are the same in binding affinity ratio: 0.0002 for the first, 0.0002 for the second.
